T1: DLL3 ECD (human, UniProt Q9NYJ7)
T1 construct: recombinant ECD aa 27-492; also called full length DLL3 ECD (aa 27-492, Cat #ab255797, Abcam); human DLL3.HIS
T1 sequence (antigen, looked up): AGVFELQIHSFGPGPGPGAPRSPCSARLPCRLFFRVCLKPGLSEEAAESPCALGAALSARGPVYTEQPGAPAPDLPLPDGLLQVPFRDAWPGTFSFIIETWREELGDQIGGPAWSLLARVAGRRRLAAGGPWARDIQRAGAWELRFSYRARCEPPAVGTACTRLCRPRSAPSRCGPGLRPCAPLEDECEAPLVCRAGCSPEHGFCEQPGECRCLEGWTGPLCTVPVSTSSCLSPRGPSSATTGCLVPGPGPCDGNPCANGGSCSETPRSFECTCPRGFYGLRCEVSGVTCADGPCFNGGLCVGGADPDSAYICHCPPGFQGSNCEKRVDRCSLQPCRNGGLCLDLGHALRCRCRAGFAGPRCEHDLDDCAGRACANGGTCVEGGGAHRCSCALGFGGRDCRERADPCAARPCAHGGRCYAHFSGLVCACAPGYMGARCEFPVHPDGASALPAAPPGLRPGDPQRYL

T2: DLL3 on cells (SHP-77, NCI-H82, HEK-DLL3, membrane proteome array cells) (human, UniProt Q9NYJ7 27-618)
T2 construct: whole, on cells; also called hDLL3
T2 sequence (looked up): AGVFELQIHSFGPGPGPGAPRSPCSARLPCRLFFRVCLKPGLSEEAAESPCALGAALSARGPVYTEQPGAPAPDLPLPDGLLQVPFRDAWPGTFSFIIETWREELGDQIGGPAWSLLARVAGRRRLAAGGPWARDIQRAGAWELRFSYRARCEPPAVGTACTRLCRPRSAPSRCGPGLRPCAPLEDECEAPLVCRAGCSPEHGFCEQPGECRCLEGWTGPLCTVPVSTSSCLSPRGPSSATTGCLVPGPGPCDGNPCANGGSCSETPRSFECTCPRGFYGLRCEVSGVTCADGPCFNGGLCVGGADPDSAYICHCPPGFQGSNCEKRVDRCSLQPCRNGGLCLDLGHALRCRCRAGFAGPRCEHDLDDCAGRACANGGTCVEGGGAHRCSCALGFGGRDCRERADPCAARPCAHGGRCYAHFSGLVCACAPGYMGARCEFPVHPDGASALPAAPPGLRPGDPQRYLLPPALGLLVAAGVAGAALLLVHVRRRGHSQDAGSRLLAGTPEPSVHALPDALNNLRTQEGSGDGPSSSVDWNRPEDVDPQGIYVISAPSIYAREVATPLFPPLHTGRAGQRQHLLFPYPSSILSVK

B1: Sc16.23 (antibody, V domains shown)
VH: QVTLKESGPGILQPSQTLSLTCSFSGFSLSTSNTGIGWIRQPSGTGLEWLAHIWWNDDKYYNPSLKSRLTISKETSNNQVFLKITNVDTADTASYFCVQIGRDYSNYAWYFDVWGAGTTVTVSS
VL: QIVLTQSPAIMSASPGEKVTLTCSASSSVSSRYLYWYQQKPGSSPKLWIYSTSNLASGVPARFSGSGSGTSYSLIISSMEAEDAASYFCHQWSNYPLTFGAGTKLELK
B2: 126_zu1 (Fc fusion)
chain: QVQLVESGGGLVQPGGSLRLSCAASGITFSMYSMSWFRQAPGQGLEAVAATTTFGSTNYADSVKGRFTISRDNSKNTLYLQMNSLRAEDTAVYYCAARFTSEEYWGQGTLVTVSSEPKSSDKTHTCPPCPAPEAEGAPSVFLFPPKPKDTLMISRTPEVTCVVVDVSHEDPEVKFNWYVDGVEVHNAKTKPREEQYNSTYRVVSVLTVLHQDWLNGKEYKCKVSNKALPSSIEKTISKAKGQPREPQVYTLPPSREEMTKNQVSLTCLVKGFYPSDIAVEWESNGQPENNYKTTPPVLDSDGSFFLYSKLTVDKSRWQQGNVFSCSVMHEALHNQYTQKSLSLSPG
notes: Humanized VHHFc

Columns and labels:
[1] = molecular target: T1, DLL3 ECD; test: ELISA on coated full length DLL3 ECD (2 ug/ml), anti-hIgG-Fc-HRP, A450
[2] = molecular target: T2, DLL3 on cells (SHP-77, NCI-H82, …); test: flow cytometry on DLL3 expressing SHP-77 cells

Row | Binder | EC50 (read off the curve) [1] [nM] | binding result [2]
1 | B1 | ~0.8 | 
2 | B2 |  | binds

Source: patent publication US20250051476A1 (ABDERA THERAPEUTICS, published 2025)
